Measurements published in US20200181210A1, “MODIFIED CYCLIC PEPTIDES AND THERAPEUTIC USE THEREOF” (THE BROAD INSTITUTE, INC., priority 2017, published 2020).

System: trypsin
Assay: trypsin protease digestion resistance of cyclotides (SDS-PAGE)
Protocol: Protease conditions were tested on cyclotides and variants. Samples were subjected to 10 μg of trypsin at 37° C. for up to 24 hours. […] Four elutions were collected in 200 μL fractions. Protein content of bound/eluted material was quantified based upon detection of fluorescently labeled lysines within bound/eluted sequences.
The cyclotides and empty yeast vector were then subjected to 10 μg trypsin protease digestion at 37° C. for up to 24 hours.

What does the source list for “pYES-MCoTI: native (natural) MCoTI cyclotide expressed in yeast from the pYES vector (cyclo(GGVCPKILQRCRRDSDCPGACICRGNGYCGSGSD); also: cyclic cystine knot, three disulfides CysI-IV, II-V, III-VI)”?
resistance to trypsin digestion (10 μg trypsin, 37° C., up to 24 hours, SDS-PAGE): resistant to trypsin digestion; resistance towards trypsin (trypsin exposure up to 18 hrs (FIG. 28)): resistance towards trypsin up to 18 hrs with no change in levels
